Measured values published in the nanobody polyreactivity screen of Harvey et al. (2022).

Test: yeast display, Sf9 membrane polyspecificity reagent, FACS + sequencing; frameworks hold sequencing errors
Method in brief: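 Nanobodies came from a synthetic yeast display library in Saccharomyces cerevisiae BJ5465, induced with galactose for 36–48 hours and stained for 1 hour at 4 °C with 10% biotinylated, detergent-solubilized Sf9 membrane reagent. Cells were enriched on streptavidin microbeads and then FACS-sorted, with low and high (top ~1%) gates set on anti-HA fluorescence for expression and streptavidin fluorescence for reagent binding. Each polyreactivity label reflects the gate a clone came from. Genes were amplified by colony PCR, sequenced by MiSeq 2 × 250 and filtered by CDR length.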

| Sequence | polyreactivity (PSR sort gate) |
| --- | --- |
| QVQLVESGGGLVQAGGSHRLSCAASGRIFRPNAMGWYRQAPGKERELVASISQSGGSTYADSVKGRFTISRDNAKNTVYLQMNSLKPEDTAVYYCAKVQGWRYQIYDYWGQGTQVTVSS | low polyreactivity |
| QVQLVESGGGLVQAGGSHRLSCAASGRIFRRYAMGWYRQARGQERELDAGITGSGTSTYYADSVKGRFTISRDNAKNTVYLQMNSLKPEDTAVYYCAADRGRGYRYNYWGQGTQVTVSS | high polyreactivity |
| QVQLVESGGGLVQAGGSHRLSCAASGRIFYRYVMGWYRQAPGKERELVAAISRGGGTNYADSVKGRFTISRDNAKNTVYLQMNSLKPEDTAVYYCAARGSPGAGYYWGQGTQVTVSS | high polyreactivity |
| QVQLVESGGGLVQAGGSHRLSCAASGRSFKYYAMGWYRQAPGKERELVARISPSSGNTYYADSVKGRFTISRDNAKNTVYLQMNSLKPEDTGVYVCATVPHYNGFNYWGQGTQVTVSS | high polyreactivity |
| QVQLVESGGGLVQAGGSHRLSCAASGRTFPVYAMGWYRHAPGKERELVAAIRGRSVRTYYADSVKGRFTISRDNAQNSVYLQMNSLKPEDTAVYYCAAYYFNPGMDYWGQGTQVTVSS | high polyreactivity |
| QVQLVESGGGLVQAGGSHRLSCAASGRTFPYYAMGWYRQAPGKERELVAAITRGVRTHYADSVKGRFTISRDNAKNTVYLQMNSLKPEDTAVYYCAREDWGSYSDMDSWGQGTQVTVSS | low polyreactivity |
| QVQLVESGGGLVQAGGSHRLSCAASGRTFRDNTLGWYRQAPGKERELVAAISRRGGSTYYADSVKGRFTISRDNANNTVYLQMNSLKPVDTADYYCNAVFLTYGSNRGEYWGQGTQVTVSS | high polyreactivity |
| QVQLVESGGGLVQAGGSHRLSCAASGSIFVVYAMGWYRQAPGKERELVASIRTGGSTNYADSVKGRFTISRDNAKNTVYLQMNSLKPEDTAVYYCAAASWNSNRHYYVARYYYWGQGTQVTVSS | high polyreactivity |
| QVQLVESGGGLVQAGGSHRLSCAASGSIFYSYAMGWYRQAPGKERELVAAITYDTGRTYYADSVKGRFTISRDNAKNTVYLQMNSLKPEDTAVYYCAVRPGYYWGYWPRFGYWGQGTQVTVSS | low polyreactivity |
| QVQLVESGGGLVQAGGSHRLSCAASGSIYLYYAMGRYRQAPGKERELVAGINRVGSTNYADSVKGRFTISRDNAKNTVYLQMNSLKPEDTAGYYCAKVVNGGYFYYQYPAQYYYWGQGTQVTVSS | low polyreactivity |
| QVQLVESGGGLVQAGGSHRLSCAASGSNIRFYAMGWYRQAPGKEREFVAAITSSGGNTYYADSVKGRFTISRDNAKNSVYLHMNSLKPEDTAVYYCAARYYGYGFDYWGQGTQVTVSS | high polyreactivity |
| QVQLVESGGGLVQAGGSHRLSCAASGSTFGQNAMGCYRQAPGKERELVAAITRRGVSTYYADSVKGRFTISRDNAKNTVYLQMNSLKPEDTAVYYCAKRYHPNSPYDYWGQGTQVTVSS | low polyreactivity |
| QVQLVESGGGLVQAGGSHRLSCAASGSTFNLNAMGWYRQAPGKERELVAAIDSGGRTNYADSVKGRFTISRDNAKNTVYLQMNSLKPEDTAVYYCADDVYAYPGSWYDYWGQGTQVTVSS | low polyreactivity |
| QVQLVESGGGLVQAGGSHRLSCAASGSTFPAYAMGLYRQAPGKERELVAAINTTGGNTYYADSVKGRFTISRDNAKNTVYFQMNSLKPEDTAVYYCAADYKARYSEKFDYWGQGTQVTVSS | low polyreactivity |
| QVQLVESGGGLVQAGGSHRLSCAASGSTFVYYAMGWYRQAPGKERELVADISSSTGSTYYADSVKGRFTISRDNAKNTVYLQMNSLKPEDTAVYYCAAGRLKFWYTYIIYDFYYWGQGTQVTVSS | low polyreactivity |
| QVQLVESGGGLVQAGGSHRLSCAASGSTFWRYAMGWYRQAPGKERELVAAITRRGSSTYYADSVKGRFTISRDNAKNTVYLQMNSLKPEDTAVYYCAREPYPYIRTYILGNYWGQGTQVTVSS | high polyreactivity |
| QVQLVESGGGLVQAGGSHRLSCAASGSTFYGYAMGWYRQAPGKESELVAAIRFSGDRTYYADSVKGRFTISRDNAKNTVYLQMNSLKPEDTAVYYCAAYGYPYQRKYGSWGQGTQVTVSS | high polyreactivity |
